Laboratory results from patent US20160009800A1 (XOMA US, published 2016).

Key:
mouse insulin receptor [1] = biological target: T1, mouse insulin receptor (mouse, UniProt P15208 28-1372); assay: FACS on mouse INSR; conditions not given on the sheet
T1 construct: whole, on cells; also called muINSR; mINSR

mouse insulin receptor [2] = biological target: T1, mouse insulin receptor; assay: FACS, serum-starved CHO-K1 cells expressing mouse INSR, no insulin
[3] = biological target: T2, mouse insulin receptor complexed with human insulin (mouse; human, UniProt P15208 28-1372; P01308 25-54; P01308 90-110); assay: FACS, CHO-K1 mouse INSR cells, signal with insulin divided by signal without insulin
T2 construct: whole, on cells;mature; also called muINSR/hINS complex
Method: (§1) Twenty five microliter aliquots of cells were plated into 96 well plates, mixed with 25 ul of antibody or PPE and incubated on ice for 1 h.
(§2) The cells were then washed once with FACS buffer and the binding of the antibody was detected by the addition of 25 ul of an appropriate fluorochrome-conjugated secondary antibody. […] After a final 15 min incubation on ice the cells were washed and the pellets resuspended in FACS buffer. The cells were analyzed on a FACSCAN™ (Becton-Dickinson, Milipitas, Calif.) and the data analyzed in both FLOWJO™ (Treestar, Ashland, Oreg.) and Microsoft Excel™.

[4] = biological target: T2, mouse insulin receptor complexed with …; assay: FACS, serum-starved CHO-K1 cells expressing mouse INSR, with insulin
Method: as §1, §2

human insulin receptor = biological target: T3, human insulin receptor (human, UniProt P06213 28-1382); assay: FACS, serum-starved CHO-K1 cells expressing human INSR, no insulin
T3 construct: whole, on cells; Uncomplexed receptor on serum-starved cells (CHOK1 transfectants or IM-9); also called hINSR; INSR
Method: as §1, §2

| Binder | binding result (mouse insulin receptor [1]) | other results |
| --- | --- | --- |
| Ab002 (antibody, V domains shown, also called XPA.015.190) VH: EVKLVESEEGLVKPGGSLKLSCAASGFTFSNYAMSWVRQTPEKRLEWVATISDGGHYTYYSDTIKGRFTISRDNAKNNLFLQLSHLKSEDTAIYYCARGTVFDYWGQGTTLTVSS VL: DIQMTQTTSSLSASLGDRVTISCRASQDISNYLNWYQQKPDGTVKLLIYYTSRLHSGVPSRFSGSGSGTDYSLTISNLEPEDIATFYCQQYSDLPYTFGGGTKLEIKR | no binding |  |
| Ab038 (antibody, V domains shown, also called XPA.015.065) VH: EVQLLESGGGLVQPGGSLRLSCAASGFTFSNYAMTWVRQAPGKGLEWVSYIHAGGGTHYANSVKGRFTISRDNSKNTLYLQMNSLRAEDTAVYYCARDLHWEGWGLGFDYWGQGTLVTVSS VL: not shown | binds |  |
| Ab042 (antibody, V domains shown, also called XPA.015.086) VH: EVQLLESGGGLVQPGGSLRLSCAASGFTFSNYAMTWVRQAPGKGLEWVSYIHAGGGTHYANSVKGRFTISRDNSKNTLYLQMNSLRAEDTAVYYCARDLHWEGWGLGFDYWGQGTLVTVSS VL: not shown | no binding |  |
| Ab018 (antibody, V domains shown, also called XPA.015.139) VH: EVQLLESGGGLVQPGGSLRLSCAASGFTFSSYWMSWVRQAPGKGLEWVSGISGSGGYIHYADSVKGRFTISRDDSKNTLYLQMNSLRAEDTAVYYCAREGSGWLVDQWGQGTLVTVSS VL: not shown | binds |  |
| Ab057 (antibody, IgG2, V domains shown, also called XPA.015.200) VH: QMQLVQSGAEVKKPGESLKISCKGYGYRFSDNWIGWVRQMPGRGLEWMGIIYPGDSETRYSPSFQGQVTISADKSISTAYLQWSSLKASDTAMYYCARHAPLAVAGMALGDWGQGTLVTVSS VL: QTVVTQEPSFSVSPGGTVTLTCGLTSGSVSTSYYPSWYQQTPGQAPRMLVHSTSTRYSGVPDRFSGSILGNKAALTITGAQADDESDYYCALYMGGGIYVFGGGTQLTVL |  | FACS area under log transformed data MFI (mouse insulin receptor [2]): 409; FACS area under log transformed data MFI ratio (+insulin/-insulin) [3]: 0.61; FACS area under log transformed data MFI [4]: 250 |
| Ab031 (antibody, V domains shown, printed on the sheet as Ab031` with a stray mark; also called XPA.015.037) VH: EVQLLESGGGLVQPGGSLRLSCAASGFTFSSNYMSWVRQAPGKGLEWVSSISGGSTYYADSRKGRFTISRDNSKNTLYLQMNSLRAEDTAVYYCARLDWSSGAFDIWGQGTLVTVSS VL: QSVLTQPPSASGTPGQRVTISCSGRSSNIGYNYVSWYQQLPGTAPKLLIYGNSNRPSGVPDRFSGSKSGTSASLAISGLRSEDEADYYCAAWDDSLSGPVFGGGTKLTVLG | no binding |  |
| Ab027 (antibody, V domains shown, also called XPA.015.042) VH: EVQLLESGGGLVQPGGSLGLSCAASGFTFNNYWMSWVRQAPGKGLEWVSYISGSGRTIYYADSVKGRFTISRDNSKNTLYLQMNSLRAEDTAVYYCARVGSSGWYYFDYWGQGTLVTVSS VL: QSVLTQPPSASGTPGQRVTISCSGRSSNIENNYVSWYQQLPGTAPKLLIYGNSNRPSGVPDRFSGSKSGTSASLAISGLRSEDEADYYCAAWDDSLNGVVFGGGTKLTVLG | no binding |  |
| Ab024 (antibody, V domains shown, also called XPA.015.022) VH: EVQLLESGGGLVQPGGSLRLSCAASGFTFSDYYMSWIRRAPGKGLEWVSRISWNSGSIGYADSLKGRFTISRDNSKNTLYLQMNSLRAEDTAVYYCARERGYGYDYWGQGTLVTVSS VL: QSVLTQPPSASGTPGQRVTISCSGTSSNLGSHTVSWYQQLPGTAPKLLIYDNNERPSGVPDRFSGSKSGTSASLAISGLRSEDEADYYCAAWDDSLSAWVFGGGTKLTVLG | no binding |  |
| Ab017 (antibody, V domains shown, also called XPA.015.017) VH: EVQLLESGGGLVQPGGSLRLSCAASGFTFSSYSMNWVRQAPGKGLEWVSVIYSGDSTYYADSVKGRFTISRDNSKNTLYLQMNSLRAEDTAVYYCARQVRDGDYGDWFDPWGQGTLVTVSS VL: QSVLTQPPSASGTPGQRVTISCTGSSSNIGAGYDVHWYQQLPGTAPKLLIYGNSNRPSGVPDRFSGSKSGTSASLAISGLRSEDEADYYCAAWDDSLSGWVFGGGTKLTVLG | binds |  |
| Ab030 (antibody, V domains shown, also called XPA.015.036) VH: EVQLLESGGGLVQPGGSLRLSCAASGFTFSSYSMNWVRQAPGKGLEWVSAISGSGGSTYYADSVKGRFTISRDNSKNTLYLQMNSLRAEDTAVYYCARDSWELLGYDAFDIWGQGTLVTVSS VL: QSVLTQPPSASGTPGQRVTISCTGSSSNIGAGYDVHWYQQLPGTAPKLLIYDNNKRPSGVPDRFSGSKSGTSASLAISGLRSEDEADYYCASWDDSHLHVLFGGGTKLTVLG | binds |  |
| Ab014 (antibody, V domains shown, also called XPA.015.158) VH: EVQLLESGGGLVQPGGSLRLSCAASGFTFSNAWMSWVRQAPGKGLEWVSAISGSGGSTYYADSVKGRFTISRDNSKNTLYLQMNSLRAEDTAVYYCAAPTVPYYYYGMDVWGQGTLVTVSS VL: QSVLTQPPSASGTPGQRVTISCSGCSSNIGNNAVNWYQQLPGTAPKLLIYRSDQRLAGVPDRFSGSKSGTSASLAISGLRSEDEADYYCQSYDSSLIGHWVFGGGTKLTVLG | binds |  |
| Ab039 (antibody, V domains shown, also called XPA.015.074) VH: EVQLLESGGGLVQPGGSLRLSCAASGFTFSSYWMSWVRQAPGKGLEWVSGISGSGGYTSYADSVKGRFTISRDNSKNTLYLQMNSLRAEDTAVYYCAKDSSDWYINSWGQGTLVTVSS VL: not shown | binds |  |
| Ab040 (antibody, V domains shown, also called XPA.015.077) VH: EVQLLESGGGLVQPGGSLRLSCAASGFTFSSYWMSWVRQAPGKGLEWVAVISKDGSSTDYAHSVKGRFTISRDNSKNTLYLQMNSLRAEDTAVYYCARDRDWIPGDVWGQGTLVTVSS VL: not shown | binds |  |
| Ab028 (antibody, V domains shown, also called XPA.015.059) VH: EVQLLESGGGLVQPGGSLRLSCAASGFTFRNYWMTWVRQAPGKGLEWVANIKQDGSEKYYVDSVKGRSTISRDNSKNTLYLQMNSLRAEDTAVYYCARQVGGGPFDIWGQGTLVTVSS VL: not shown | no binding |  |
| Ab026 (antibody, V domains shown, also called XPA.015.026) VH: EVQLLESGGGLVQPGGSLRLSCAASGFTFSNYVISWVRQAPGKGLEWVSAISGSGGSTFYPDSVKGRFTISRDNSKNTLYLQMNSLRAEDTAMYYCARVGLSGWYYFDYWGQGTLVTVSS VL: not shown | no binding |  |
| Ab065 (antibody, IgG2, V domains shown, also called XPA.015.214) VH: QVQLVQSGAEVKKPGESLKISCKGSGYSFTSYWIGWVRQMPGKGLEWMGIIYPGDSDTRYSPSFQGQVTISADKSISTAYLQWSSLKASDTAMYYCARHELGIDYWGQGTLVTVSS VL: QAGLTQPPSVSKGLRQTATLTCTGDNNIVGDQGAAWLQQHQGHPPKLLSFRNNSRPSGISERFSASRSRNTASLTITRLQPEDAADYYCSAWDSFLSAWVFGGGTKLTVL |  | FACS area under log transformed data MFI (human insulin receptor): 205; FACS area under log transformed data MFI (mouse insulin receptor [2]): 483; FACS area under log transformed data MFI ratio (+insulin/-insulin) [3]: 0.37; FACS area under log transformed data MFI [4]: 177 |
| Ab032 (antibody, V domains shown, also called XPA.015.093) VH: EVQLLESGGGLVQPGGSLRLSCAASGFTFSNYAMGWVRQAPGKGLEWVSSISGSGGTTYYADSVKGRFTISRDNSKNTLYLQMNSLRAEDTAVYYCARHKGLQPLDYWGQGTLVTVSS VL: QSVLTQPPSASGTPGQRVTISCSGSISNIGSNYVSWYQQLPGTAPKLLIYGNSNRPSGVPDRFSGSKSGTSASLAISGLRSEDEADYYCAAWDDSLSPHVVFGGGTKLTVLG | binds |  |
| Ab006 (antibody, V domains shown, also called XPA.015.013) VH: EVQLLESGGGLVQPGGSLRLSCAASGFTFSNYAMGWVRQAPGKGLEWVSSISGSGGTTYYADSVKGRFTISRDNSKNTLYLQMNSLRAEDTAVYYCARHKGLQPLDYWGQGTLVTVSS VL: QSVLTQPPSASGTPGQRVTISCSGSISNIGSNYVSWYQQLPGTAPKLLIYGNSNRPSGVPDRFSGSKSGTSASLAISGLRSEDEADYYCAAWDDSLSPHVVFGGGTKLTVLG | binds |  |
| Ab009 (antibody, V domains shown, also called XPA.015.075) VH: EVQLLESGGGLVQPWGSLRLSCAASGFTFSNYAMGWVRQAPGKGLEWVSSISGSGGTTYYADSVKGRFTISRDNSKNTPYLQMNSLRAEDTAVYYCARHKGLQPLDYWGQGTLVTVSS VL: QSVLTQPPSASGTPGQRVTISCSGSISNIGSNYVSWYQQLPGTAPKLLIYGNSNRPSGVPDRFSGSKSGTSASLAISGLRSEDEADYYCAAWDDSLSPHVVFGGGTKLTVLG | binds |  |
| Ab036 (antibody, V domains shown, also called XPA.015.047) VH: EVQLLESGGGLVQPGGSLRLSCAASGFTFSNYAMGWVRQAPGKGLEWVSSISGSGGTTYYADSVKGRFTISRDNSKNTLYLQMNSLRAEDTAVYYCARHKGLQPLDYWGQGTLVTVSS VL: QSVLTQPPSASGTPGQRVTISCSGSSSNIGGNSVHWYQQLPGTAPKLLIYGNSNRPSGVPDRFSGSKSGTSASLAISGLRSEDEADYYCAAWDDSLSPHVVFGGGTKLTVLG | binds |  |
| Ab011 (antibody, V domains shown, also called XPA.015.085) VH: EVQLLESGGGLVQPGGSLRLSCAASGFTFSNYAMGWVRQAPGKGLEWVSSISGSGGTTYYADSVKGRFTISRDNSKNTLYLQMNSLRAEDTAVYYCARHKGLQPLDYWGQGTLVTVSF VL: QSVLTQPPSASGTPGQRVTISCSGSISNIGSNYVSWYQQLPGTAPKLLIYGNSNRPSGVPDRFSGSKSGTSASLAISGLRSEDEADYYCAAWDDSLSPHVVFGGGTKLTVLG | binds |  |
